Positions count from the first letter of the chain named.
T1: human GDF15-his (human)
T1 construct: Recombinant His-tagged fusion protein expressed in 293F cells
T1 chain: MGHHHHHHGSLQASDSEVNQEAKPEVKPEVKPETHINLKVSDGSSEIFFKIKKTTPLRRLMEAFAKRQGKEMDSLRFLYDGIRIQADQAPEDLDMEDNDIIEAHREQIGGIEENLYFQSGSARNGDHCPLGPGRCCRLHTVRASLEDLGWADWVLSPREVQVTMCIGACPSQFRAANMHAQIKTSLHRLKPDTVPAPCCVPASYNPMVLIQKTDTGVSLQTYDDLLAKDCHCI

T2: human GDF15-hFc (human)
T2 construct: Recombinant hFc-tagged fusion protein expressed in 293F cells
T2 chain: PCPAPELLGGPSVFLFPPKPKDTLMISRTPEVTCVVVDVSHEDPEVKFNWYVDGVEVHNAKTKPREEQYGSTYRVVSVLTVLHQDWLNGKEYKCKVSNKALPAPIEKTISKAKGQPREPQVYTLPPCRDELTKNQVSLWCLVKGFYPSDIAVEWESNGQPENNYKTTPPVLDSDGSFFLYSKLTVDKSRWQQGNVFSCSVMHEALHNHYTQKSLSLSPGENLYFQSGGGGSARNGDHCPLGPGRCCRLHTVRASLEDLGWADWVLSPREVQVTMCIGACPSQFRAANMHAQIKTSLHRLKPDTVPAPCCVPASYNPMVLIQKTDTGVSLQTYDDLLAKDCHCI

B1: hum_R37-17 (antibody, V domains shown)
VH: EVQLVESGGGLVKPGGSLRLSCAASGFSLSNYYMSWVRQAPGKGLEWVGMISFSGTTYATWAKGRFTISRDDSKNTVYLQINSLKTEDTAVYFCARVVYAGWTYPLGIWGQGTLVTVSS
VL: DIQMTQSPSSLSASVGDRVTITCQASQSISSVLSWYQQKPGKPPKLLIYEASILASGVPSRFSGSGSGTDFTLTISSLQPEDFATYYCQANYDVYNYGNPFGGGTKVEIK
notes: Tested in human IgG1 format
B2: hum_R37-15 (antibody, V domains shown)
VH: B1 VH with V48I, R70K
VL: B1 VL
notes: Tested in human IgG1 format
B3: hum_R37-16 (antibody, V domains shown)
VH: B1 VH with V48I
VL: B1 VL
notes: Tested in human IgG1 format
B4: hum_R37-18 (antibody, V domains shown)
VH: B1 VH with V77L, I81M
VL: B1 VL
notes: Tested in human IgG1 format
B5: hum_R37-14 (antibody, V domains shown)
VH: EVQLVESGGGLVKPGGSLRLSCAASGFSLSNYYMSWVRQAPGKGLEWIGMISFSGTTYATWAKGRFTISKDSSTVYLQINSLKTEDTAVYFCARVVYAGWTYPLGIWGQGTLVTVSS
VL: B1 VL
notes: Tested in human IgG1 format
B6: GDF-R31-rabIg1 (antibody, V domains shown)
VH: QQLKESGGRLVTPGTPLTLTCTVSGFSLSDYYMSWVRQAPGKGLEWIGDIYGGSGTTDYASWVKGRFTISKTSTTVDLRIASPTTEDTATYFCGRGITADIWGPGTLVTVSL
VL: DIVLTQTPASVEAAVGGTVTIKCQASQSISSYLAWYQQKPGQPPKLLIYKASTLASGVPSRFKGSGSGTEFTLTISDLECADAATYYCRCIYGDSYGAAFGGGTEVVVQ
notes: Full-length rabbit antibody: rabbit IgG1 heavy constant (pTTa1-rab Ig1-H) and rabbit light constant (pTTa1-rab-CLB4); also called GDF15-R31-rabIg1
B7: GDF-R36-rabIg1 (antibody, V domains shown)
VH: QSLEESGGRLVTPGTPLTLTCTASGFSLSNYYMSWVRQAPGEGLEWIGMISFSGTTYATWAKGRFTISKTSTTVDLKITSPTTEDTATYFCARVVYAGWTYPLGIWGPGTLVTVSS
VL: DPVLTQTPASVSEPVGGTVTIKCQASQSISSVLSWYQQKPGQPPKVLIYEASTLASGVPSRFKGSGSGTDFTLTISDLECADAATYYCQANYDVYNYGNPFGGGTEVVVK
notes: Full-length rabbit antibody: rabbit IgG1 heavy constant and rabbit light constant; also called GDF15-R36-rabIg1
B8: GDF-R35-rabIg1 (antibody, V domains shown)
VH: B7 VH
VL: B7 VL with D1A, P2I, V3N, L4M, L54Q
notes: Full-length rabbit antibody: rabbit IgG1 heavy constant and rabbit light constant; also called GDF15-R35-rabIg1
B9: GDF-R45-rabIg1 (antibody, V domains shown)
VH: B7 VH with L3V, E4K, N30D, S34T, T70A
VL: B7 VL with D1Y, P2V, V3M, L4M, A9P
notes: Full-length rabbit antibody: rabbit IgG1 heavy constant and rabbit light constant; also called GDF15-R45-rabIg1
B10: GDF-R54-rabIg1 (antibody, V domains shown)
VH: QQLKESGGRLVTPGTPLTLTCTVSGFSLSSYDMTWVRQVPGKGLEWIGIINNSGNTYYASWAKGRFTISKTSTTVDLKITSPTTEDTATYFCARGILVYADYGDHNLWGPGTLVTVSS
VL: DVVMTQTASPVSAAVGGTVTINCQASEDIYTNLAWFQQKPGQPPKLLIYAASTLASGVPSRFSGSGSGTEFTLTISGLQCDDAATYFCLGVYTYISADGAFGGGTEVVVK
notes: Full-length rabbit antibody: rabbit IgG1 heavy constant and rabbit light constant; also called GDF15-R54-rabIg1
B11: GDF-R44-rabIg1 (antibody, V domains shown)
VH: QSVKESGGRLVTPGTPLTLTCKASGFSLSTYWMSWVRQAPGKGLEWIGTIYAGSGGTWYASWVKGRFTISKTSTTVDLKMTSLTTEDTATYFCVRGPNYSDAIWGPGTLVTVSS
VL: DIVLTQTAASVSEPVGGTVTIKCQASEYIYSSLAWYQQKPGQPPKLLIYDASDLASGVPSRFKGSGYGTEFTLTISGVQCGDAATYYCQCTDLSSSAGNTFGGGTEVVVK
notes: Full-length rabbit antibody: rabbit IgG1 heavy constant and rabbit light constant; also called GDF15-R44-rabIg1
B12: hum_R37-12 (antibody, V domains shown)
VH: B1 VH with V77L, I81M
VL: B1 VL with L46A
notes: Tested in human IgG1 format
B13: hum_R37-10 (antibody, V domains shown)
VH: B1 VH with V48I
VL: B1 VL with L46A
notes: Tested in human IgG1 format
B14: hum_R37-4 (antibody, V domains shown)
VH: B1 VH with V48I
VL: B1 VL with M4L, L46A
notes: Tested in human IgG1 format
B15: hum_R37-6 (antibody, V domains shown)
VH: B1 VH with V77L, I81M
VL: B1 VL with M4L, L46A
notes: Tested in human IgG1 format

Target: T1, human GDF15-his
Test: ELISA as in Example 2: plate coated with the antibody, graded human GDF15-his, anti-his-HRP, OD450; the sheet's x axis reads 'Log GDF15 antibody (nM)'
Experimental: (§1) ELISA binding assay: The purified monoclonal antibody was subjected to a binding assay with human GDF15-his protein. The binding assay was designed to characterize the binding activity of the anti-GDF15 antibody. Briefly, a 96-well plate was coated with anti-GDF15 antibody (200 ng/well) and incubated for 1 hour at 37° C. The plates were washed with PBST and then blocked for 1 hour at room temperature using 1% BSA. Then 100 µl/well of gradient-diluted human GDF15-his solution (dose range 0-50 μg/ml) was added into plates. After incubation, 100 μl of anti-his tag secondary antibody (anti-his-HRP (1:2000), Bersee, cat #BHR790) was added to each well. Finally, the TMB solution (100 μl/well) was added. 2M H₂SO₄ was used to stop the reaction. The OD450 was measured, and the binding curves were generated by PRISM software to analyze the affinity of candidate antibodies to human GDF15 antigen, and EC₅₀ value were calculated.

| Binder | EC50 (read off the curve) [nM] |
| --- | --- |
| B1 | ~200 |
| B2 | ~200 |
| B3 | ~200 |
| B4 | ~200 |
| B5 | ~200 |

Target: T1, human GDF15-his
Test: ELISA; antibody coated, human GDF15-his titrated, anti-his-HRP detection
Experimental: as §1

| Binder | EC50 [nM] |
| --- | --- |
| B6 | 66.5 |
| B7 | 44.4 |
| B8 | 31.3 |
| B9 | 68.9 |
| B10 | 30.9 |
| B11 | 54.8 |

Target: T2, human GDF15-hFc
Test: competition ELISA; GFRAL-his coated, antibody titrated against human GDF15-hFc, anti-human IgG-HRP detection
Experimental: (§2) The ELISA assay was performed to measure the inhibitory activity of anti-GDF15 antibodies in concentration gradients to block GDF15 binding to GFRAL receptor. IC₅₀ values were used as a measure for neutralizing activity of candidate molecules. Briefly, 96-well plates were coated with 100 ng/well of GFRAL-his protein (SEQ ID NO: 74), and incubated for 1 h at 37° C. The plates were washed with PBST and then blocked for 1 hour at 37° C. with 1% BSA. Gradient-diluted antibodies (dose range 0˜10 μg/ml) was added into each well, immediately followed by equal volume of human GDF15-hFc protein ([…]). After incubation and washing, 100 μl of anti-human IgG secondary antibody (goat anti-human IgG-HRP, Sigma, A8667) was added to each well. Finally, TMB solution (100 μl/well) was added. 2M H₂SO₄ was used to stop the reaction. The OD450 was measured and the binding curve was generated by PRISM to calculate the IC₅₀ value.

| Binder | IC50 [nM] |
| --- | --- |
| B6 | 2.28 |
| B7 | 1.44 |
| B8 | 1.32 |
| B9 | 1.56 |
| B10 | 0.82 |
| B11 | 1.98 |

Target: T1, human GDF15-his
Test: cell-based or functional assay

| Binder | IC50 (read off the curve), SRE-luciferase signal in 293T-GFRAL/RET-Luc cells with human GDF15-his [nM] |
| --- | --- |
| B1 | ~0.08 |
| B3 | ~0.08 |
| B12 | ~0.05 |

Target: T1, human GDF15-his
Test: cell-based or functional assay
Remark: another data set of the same source

| Binder | IC50 (read off the curve), SRE-luciferase signal in 293T-GFRAL/RET-Luc cells with human GDF15-his [nM] |
| --- | --- |
| B2 | ~0.2 |
| B4 | ~0.2 |
| B5 | ~0.2 |

Target: T1, human GDF15-his
Test: cell-based or functional assay
Remark: another data set of the same source

| Binder | IC50, 293T-GFRAL/RET-Luc SRE luciferase reporter cells stimulated with human GDF15-his (15 ng/ml) [nM] |
| --- | --- |
| B7 | 0.17 |
| B8 | 0.21 |
| B9 | 0.18 |
| B10 | 0.18 |
| B11 | 0.27 |

Target: T1, human GDF15-his
Test: ELISA as in Example 2: plate coated with the antibody, graded human GDF15-his, anti-his-HRP, OD450; the sheet's x axis reads 'Log GDF15 Antibody (nM)'
Experimental: as §1

| Binder | EC50 (read off the curve) [nM] |
| --- | --- |
| B13 | ~80 |
| B12 | ~80 |

Target: T2, human GDF15-hFc
Test: competition ELISA as in Example 2; GFRAL-his coated, antibody titrated against human GDF15-hFc
Experimental: as §2

| Binder | IC50 [nM] |
| --- | --- |
| B13 | 1.86 |
| B1 | 1.33 |
| B2 | 1.59 |
| B3 | 1.63 |
| B4 | 0.88 |
| B5 | 1.51 |
| B14 | 1.76 |
| B15 | 1.72 |
| B12 | 1.83 |

Target: T1, human GDF15-his
Test: ELISA as in Example 2: plate coated with the antibody, graded human GDF15-his, anti-his-HRP, OD450; the sheet's x axis reads 'Log GDF15 Antibody (nM)'
Remark: another data set of the same source
Experimental: as §1

| Binder | EC50 (read off the curve) [nM] |
| --- | --- |
| B14 | ~60 |
| B15 | ~60 |

Target: T1, human GDF15-his
Test: cell-based or functional assay
Remark: another data set of the same source

| Binder | IC50 (read off the curve), SRE-luciferase signal in 293T-GFRAL/RET-Luc cells with human GDF15-his [nM] |
| --- | --- |
| B13 | ~0.06 |
| B14 | ~0.06 |
| B15 | ~0.06 |

Reference: US20250326828A1 (STAIDSON BEIJING BIOPHARMACEUTICALS, published 2025)
